Results: US20070037736A1, “Therapeutic composition comprising the KAL protein and use of the KAL protein for the treatment of retinal, renal, neuronal and neural injury” (INSTITUT PASTEUR, priority 1997, published 2007)

Legend:
CHO-677 cells = assay: Adhesion assay with HS-deficient mutant cells; assay type: cell-based, Chinese Hamster
Source text: The parental CHO cell line and the human KAL-transfected CHO clones (1-1 and 2-3) were cultivated in DMEM medium supplemented with 8% fetal calf serum (PAA, Jacques Boy, France). • Cells from the olfactory neuronal line 13.S.1.24 also named “line 24” (kindly provided by Dr. Astic, Lyon, France) were cultivated in DMEM supplemented with 10% calf serum. Porcine kidney epithelial cells (LLCPK) ATCC NO CRL1392 • Mouse GnRH neurons (GT1, subclone 1) • Wild-type CHO-K1, mutant CHO-K1-677 (Lidholt K. et al., 1992) and CHO-K1-606 (Bame et al., 1994) cell lines were provided to us by Dr. Esko, the mutant CHO-K1-745 (Esko et al., 1987) cell line was obtained from ATCC. The CHO-K1-677 cells display undetectable levels of heparan-sulfate (HS), but synthesize chondroitin sulfate (CS) at a level 3 times higher than wild-type CHO-K1 cells. The CHO-K1-606 cells express HS and CS at levels similar to those observed in wild-type, but HS is 2 to 3 times less sulfated than in wild-type cells. The CHO-K1-745 cells, deficient in xylosyltransferase, synthesize neither HS nor CS (Esko et al., 1987). Wild-type and mutant CHO-K1cells were maintained in Ham F12 medium supplemented with 10% fetal calf serum.
Adhesion assays were performed as described in (à compléter) with some modifications. Coating with the various molecules, at the indicated concentrations in 0.5 ml PBS, was performed in plastic 24-well multidishes (Nunclon™) at 37° C. (1 h or overnight).The cells were then washed three times with PBS, coating blocked with 1% heat-inactivated BSA (à compléter) for at least 1 h at 37° C., followed by three PBS washes, before addition of the cells (10^6 cells per ml in serum-free medium containing 0.1% heat-inactivated BSA). In standard experiments, purified KAL was applied at 3 μg/ml. […]
(§1) Cells were incubated for 30 min to 1 h on coated wells. […] Quantification of the attached cells was performed using a colorimetric method (à compléter). Data are expressed as the percentage of adherent cells on each tested substrate with reference to poly-L-lysine. […]

CHO-K1 cells = assay: Adhesion and inhibition assay, colorimetric; assay type: cell-based, Chinese Hamster
Experimental: (§2) Adhesion assays were performed as described in (à compléter) with some modifications. Coating with the various molecules, at the indicated concentrations in 0.5 ml PBS, was performed in plastic 24-well multidishes (Nunclon™) at 37° C. (1 h or overnight).The cells were then washed three times with PBS, coating blocked with 1% heat-inactivated BSA (à compléter) for at least 1 h at 37° C., followed by three PBS washes, before addition of the cells (10^6 cells per ml in serum-free medium containing 0.1% heat-inactivated BSA). In standard experiments, purified KAL was applied at 3 μg/ml. Other substrates were used as control, fibronectin ([…]) and poly-L-lysine (100 μg/ml).
(§3) Cells were incubated for 30 min to 1 h on coated wells. Medium was then aspirated and unbound cells removed by one wash with PBS. The adherent cells were fixed with […] paraformaldehyde (PFA) in PBS and stained with 0.1% crystal violet. Quantification of the attached cells was performed using a colorimetric method (à compléter). Data are expressed as the percentage of adherent cells on each tested substrate with reference to poly-L-lysine. Assays in triplicate were repeated in three independent experiments.
Heparin, heparan sulfate or chondroitin sulfate (up to 1 mg/ml in PBS) was added in KAL-coated-BSA-saturated wells, and allowed to interact for 2 h at 37° C. […]

[1] = system: olfactory neurons (line 24); assay: Spreading and neurite growth on coated substrates; assay type: cell-based, rat; details: for mean neurite length per olfactory neuron: mean ± SEM
Experimental: FIG. 28: Mean neurite length on the different substrates after one hour, two hours and eight hours in vitro. Mean value±SEM. More than 100 neurons were analyzed in each experimental condition.
Cells, in serum-free medium containing 0.1% heat inactivated BSA were seeded on KAL- or laminin-coated wells, and maintained for 20 min to 22 h at 37° C. Adherent cells were fixed, stained with toluidine blue, and photographied with an inverted microscope.

PC12 cells [2] = assay: Adhesion and inhibition assay, colorimetric; assay type: cell-based, rat; details: HS or CS pretreatment of KAL-coated wells; data not shown
Experimental: as §2, §3
Cells were incubated for 5 min at room temperature in HBSS containing 5 mM EDTA, washed once with HBSS and preincubated for 1 h at 4° C. in HBSS containing 0.1% BSA in the absence or in the presence of Ca^++ and/or Mg^++ prior plating.
Heparin, heparan sulfate or chondroitin sulfate (up to 1 mg/ml in PBS) was added in KAL-coated-BSA-saturated wells, and allowed to interact for 2 h at 37° C. After three washings with PBS, CHO-K1or PC12 cells were plated, and incubated as usual.
A 32 aminoacid peptide (32R1-FIG. 24) was synthesized (Syntiem laboratory). Control peptides were C17 (NH2CSLVPTKKKRRKTTDGF-COON) (SEQ ID NO:7) derived from the second fibronectin type III repeat of human KAL and C 16V (NHzCGSYANNNRYGRDPPTSV-000H), (SEQ ID NO:8) derived from the EYA1 protein (a completer). The peptides, at various concentrations (10 to 30 μg/ml), were directly adsorbed on polystyrene microtiter wells (Immulon 4, Nunc). […]

PC12 cells [3] = assay: Adhesion assay on coated wells, cell counter; includes antibody, heparin and R1-FNIII inhibition; assay type: cell-based, rat
Experimental: (§4) 24-well microtiter plates were coated at 37 °C overnight with 20 μg/ml of laminin, 5μg/ml of KAL in PBS, pH=7.4. The plates were washed twice with PBS and non specific sites were blocked by the addition of 1% BSA in PBS for 1 hour at 37° C. Wells were washed twice with PBS. Cerebellar neurons or PC12 cells were resuspended in DMEM to a final concentration of 10^6 cells/ml. 500 μl of this suspension was added to each coated well. Cells were also added to control wells that had been coated with BSA alone. Plates were incubated at 37° C. for 90 min in a 5% CO2 humidified atmosphere. The wells were washed gently twice with 0.5 ml PBS. To remove adherent cells from the wells, 0.5 ml of 0.05% trypsin-EDTA were added to each well. After 10 min at 37 °C, the 0.5 ml of trypsin-EDTA containing the detached cells were removed and the number of cells was determined by using a cell counter (Coutler, ZM equipped with a Coultronic 256 channelizer).
(§5) Each cell adhesion assay was carried out in triplicate. The ration of adherent cells with respect to the total number of cell ×100 was determined as the % of cell adhesion.
For inhibition of cell adhesion, 5 ×10^5 PC12 cells were deposited on areas previously coated with KAL and with antiserum directed against the human KAL protein at different concentrations and treated as described for adhesion assay. […]

[4] = system: P5 cerebellar granule cells; assay: Adhesion assay, colorimetric, relative to poly-L-lysine; assay type: cell-based, mouse; details: 1 hour
Experimental: as §2, §3

CHO-745 cells = assay: Adhesion assay with HS- and CS-deficient mutant cells; assay type: cell-based, Chinese Hamster; details: KAL substrate
Source text: (§6) The parental CHO cell line and the human KAL-transfected CHO clones (1-1 and 2-3) were cultivated in DMEM medium supplemented with 8% fetal calf serum (PAA, Jacques Boy, France). • Cells from the olfactory neuronal line 13.S.1.24 also named “line 24” (kindly provided by Dr. Astic, Lyon, France) were cultivated in DMEM supplemented with 10% calf serum. Porcine kidney epithelial cells (LLCPK) ATCC NO CRL1392 • Mouse GnRH neurons (GT1, subclone 1) • Wild-type CHO-K1, mutant CHO-K1-677 (Lidholt K. et al., 1992) and CHO-K1-606 (Bame et al., 1994) cell lines were provided to us by Dr. Esko, the mutant CHO-K1-745 (Esko et al., 1987) cell line was obtained from ATCC. The CHO-K1-677 cells display undetectable levels of heparan-sulfate (HS), but synthesize chondroitin sulfate (CS) at a level 3 times higher than wild-type CHO-K1 cells. The CHO-K1-606 cells express HS and CS at levels similar to those observed in wild-type, but HS is 2 to 3 times less sulfated than in wild-type cells. The CHO-K1-745 cells, deficient in xylosyltransferase, synthesize neither HS nor CS (Esko et al., 1987). […]
as §1

CHO-606 cells = assay: Adhesion assay with mutant cells expressing undersulfated HS; assay type: cell-based, Chinese Hamster; details: KAL substrate, versus wild-type CHO-K1
Source text: as §6, §1

[5] = system: cerebellar granule neurons (aggregates); assay: Survival and neurite outgrowth of granule cell aggregates on coated substrates; assay type: cell-based, mouse; details: 48 hours culture
Experimental: Reaggregate cultures of cerebellar neurons from mice on postnatal day-5 were prepared according to Gao et al. (1995). After dissociation, cells were further purified by preplating on a poly-L-Lysine treated (25 μg/ml) substrate for 30 min and plated in uncoated 96-well dishes (5 10^5 cells/well) in BME plus 10% horse serum, 5% fetal calf serum, 9 mg/ml glucose, 0.3 mg/ml glutamine, 50 U/ml penicillin and 0.1 mg/ml streptomycin. Aggregates (100-200 cells) were harvested after 24 h to be used in coculture experiments.
prepared as described in the Materials and Methods section. Cerebellar granule neurons were seeded on surfaces that had been coated with KAL protein. Polylysine and bovine serum albumin (BSA) were used as positive and negative controls respectively.

[6] = system: olfactory neurons (line 24); assay: Adhesion and peptide/serum inhibition assay, colorimetric; assay type: cell-based, rat; details: substrate coated to microtiter wells
Experimental: as §2, §3
A 32 aminoacid peptide (32R1-FIG. 24) was synthesized (Syntiem laboratory). Control peptides were C17 (NH2CSLVPTKKKRRKTTDGF-COON) (SEQ ID NO:7) derived from the second fibronectin type III repeat of human KAL and C 16V (NHzCGSYANNNRYGRDPPTSV-000H), (SEQ ID NO:8) derived from the EYA1 protein (a completer). The peptides, at various concentrations (10 to 30 μg/ml), were directly adsorbed on polystyrene microtiter wells (Immulon 4, Nunc). Adhesion assays were performed as described above.
In peptide inhibition assays, cells were preincubated with the peptides at different concentrations (10 to 100 μg/ml) for 1 h at 4° C., then plated to KAL-coated wells, and incubated for a further 30 min period of time.

cerebellar granule cells = assay: Adhesion assay on coated wells, adherent cells counted with a cell counter (% of total cells); assay type: cell-based, mouse; details: coated dishes, 90 minute incubation
Experimental: Cerebellar cell cultures. Dissociated cell cultures were obtained from Swiss mouse cerebella on postnatal day 5. At this age, granule cells account for up to 90% of the total cell population, glial cells included. Cells were dissociated by combined trituration and trypsinisation, and grown in chemically defined medium DMEM/Ham's F12 (3 vol/1 vol) containing 0.2 mM glutamine, 5 μg/ml insulin, 100 μg/ml tranferrin, 20 nM progesterone, […] purrescine, 30 nM selenium 100 U/ml penicillin and 0.1 mg/ml streptomycin.
as §4, with “Cells were also added to control wells that had been coated with BSA alone. Plates were incubated at 37° C. for 90 min in a 5% CO2 humidified atmosphere. The wells were washed gently twice with 0.5 ml PBS. To remove adherent cells from the wells, 0.5 ml of 0.05% trypsin-EDTA were added to each well.” left out
as §5

Question: How did the “effect of enzyme treatment of CHO-677 cells on adhesion on fibronectin substrate” value (CHO-677 cells; data not shown) turn out when chondroitinase ABC was run?
Answer: The value was “did not affect adhesion”.

Question: And the “effect of enzyme treatment of CHO-677 cells on adhesion to KAL” value (CHO-677 cells; increasing concentrations, prior plating)?
Answer: The value was “virtually complete inhibition”.

Question: And the “decrease of adhesion of CHO-K1 cells on KAL after enzyme treatment” value (CHO-K1 cells; cells treated prior plating)?
Answer: The value was “about 50%”.

Question: What does the source list for fibronectin [reference compound]?
Answer: mean neurite length per olfactory neuron ([1]; eight hours after plating): 63 (±2,5) μm; mean neurite length per olfactory neuron ([1]; one hour on substrate): 46 (±4) μm

Question: How did the “inhibition of PC12 cell adhesion on KAL” value (PC12 cells [2]) turn out when heparin was run?
Answer: Its value is 50%.

Question: What about the “inhibition of CHO-K1 cell adhesion on KAL” value (CHO-K1 cells; KAL-coated wells preincubated with 100 μg/ml) of the same molecule?
Answer: The value was “approximately 50%”.

Question: And the “heparin concentration from which adhesion of PC12 cells to KAL protein was inhibited” value (PC12 cells [3]; heparin present in KAL-coated wells)?
Answer: The value was no less than 0.03 mg/mL.

Question: How did the “percentage of cell adhesion relative to PLL substrate (set as 100%)” value [4] turn out when laminin [reference compound] was run?
Answer: Its value is 50%.

B1: KAL protein: recombinant human KAL gene product (680 aa, SwissProt P23352) purified from transfected CHO cells CHKAL2-3/d11 (protein)
chain: AGPGAAAARRLDESLSAGSVQRAPCASRCLSLQITRISAFFQHFQNNGSLVWCQNHKQCSKCLEPCKESGDLRKHQCQSFCEPLFPKKSYECLTSCEFLKYILLVKQGDCPAPEKASGFAAACVESCEVDNECSGVKKCCSNGCGHTCQVPKTLYKGVPLKPRKELRFTELQSGQLEVKWSSKFNISIEPVIYVVQRRWNYGIHPSEDDATHWQTVAQTTDERVQLTDIRPSRWYQFRVAAVNVHGTRGFTAPSKHFRSSKDPSAPPAPANLRLANSTVNSDGSVTVTIVWDLPEEPDIPVHHYKVFWSWMVSSKSLVPTKKKRRKTTDGFQNSVILEKLQPDCDYVVELQAITYWGQTRLKSAKVSLHFTSTHATNNKEQLVKTRKGGIQTQLPFQRRRPTRPLEVGAPFYQDGQLQVKVYWKKTEDPTVNRYHVRWFPEACAHNRTTGSEASSGMTHENYIILQDLSFSCKYKVTVQPIRPKSHSKAEAVFFTTPPCSALKGKSHKPIGCLGEAGHVLSKVLAKPENLSASFIVQDVNITGHFSWKMAKANLYQPMTGFQVTWAEVTTESRQNSLPNSIISQSQILPSDHYVLTVPNLRPSTLYRLEVQVLTPGGEGPATIKTFRTPELPPSSAHRHLKHRHPHHYKPSPERY
Question: Which results are given for B1?
Answer: adhesion of CHO-745 cells on the substrate (CHO-745 cells): No adhesion; stimulation of neurite elongation by comparison with fibronectin and peptide 32R1 ([1]; eight hours after plating): 30%; mean neurite length per olfactory neuron ([1]; eight hours after plating): 81 (±5) μm; mean neurite length per olfactory neuron ([1]; one hour on substrate): 66 (±2,5) μm; decrease of adhesion of CHO-677 cells compared to wild-type CHO-K1 cells (CHO-677 cells; KAL substrate): about 70%; adhesion of CHO-606 cells to the substrate (CHO-606 cells): comparable to that found in wild-type; percentage of cell adhesion relative to PLL substrate (set as 100%) [4]: 80%; survival and neurite outgrowth of granule cell aggregates on coated surface [5]: large halo of neuritic processes; percentage of olfactory neurons (line 24) adherent on substrate [6]: 70%; concentration of KAL protein giving maximum percentage of cell adhesion (PC12 cells [3]; coating concentration, results not shown, cell type not specified): 5 µg/mL; percentage of adherent cells relative to the total number of cells deposited (cerebellar granule cells): 80%
